We go through three molecules from patent publication US20260258397A1, “REAGENTS AND SYSTEMS FOR […]” (priority 2023, published 2026).

Entries after “also recorded” stand apart in the source; their conditions may differ. Like-named read-outs stand apart in the source and are kept apart here.

What is called EC50 is the midpoint of the concentration-response curve.

For one test, the system named is HAB1. In words: Y2H X-gal staining of evolved sensors: ligand responsiveness and cross reaction. Format: cell-based, Arabidopsis. To be noted: Y2H, FIG. 7; WIN 55,212-2 or 4F-MDMB-BUTINACA
The method, then:
(§1) High-affinity sensors were tested for cross reaction using both Y2H and in vitro PP2C assays. […] Similar methods were used to characterize PYR1^PIRI and PYR1^WIN sensor selectivity and sensitivity.
The PYL2 coding sequence cloned in the Y2H pBD vector was used as template to incorporate the corresponding PYR1^WIN and PYR1^4F homologous residues via site directed mutagenesis using the QuikChange Lightning Multi Site-Directed mutagenesis kit (Agilent Technologies). Resulting clones PYL2^WIN (K64Q, F165A, V1661) and PYL2^4F (H119Q, Y124G, F165V, V166G) were sequence confirmed and incorporated into MAV99 harboring pACT-HAB1 and tested for ligand activation using uracil-independent growth and X-gal staining experiments. The same method was used to generate a PYL2^WIN version in a protein expression vector for crystallization studies.

Another test deals with ΔN-HAB1. In words: Ligand/receptor-mediated PP2C (ΔN-HAB1 phosphatase) inhibition by recombinant PYR1 sensors. Format: biochemical, Arabidopsis. The following applies: for response of evolved organophosphate receptors to native ligand ABA: HAB1 inhibition and Y2H assays, ABA tested at 5000 nM in Y2H; for EC50: read-out: EC50, receptor-mediated inhibition of HAB1 phosphatase activity in vitro. How it is done:
Coding sequences of the cannabinoid sensors were cloned into the protein expression vector pET28a to encode 6×His-tag-receptor fusions.
as §1

Another test has as its system Luc^N-PYR1/Luc^C-ΔN-HAB1. Nature of the test: In vivo split NanoLuc luciferase complementation in yeast. The following applies: read-out: EC50 split luciferase reconstitution. In kind it is cell-based, S. cerevisiae. How it is done:
Ligand was added to yeast cultures 12 h prior to measuring cell luminescence. A sample of each culture was diluted to an OD600 of 0.2, 10 μL of which was transferred to a 96-well plate, the luciferase reagent mixture (Nano-Glo live cell substrate; Promega) diluted to a 1× concentration with DI water was added to the cell sample to a final volume of 200 μL. The relative luminescence signal (RLU) was measured using a Synergy™ Neo2 Multi-Mode Microplate Reader in luminescence detection mode for 30 minutes after the addition of the reagents. The RLU of each measured sample was taken as the average value of the time course once the signal had reached a plateau.
A protein complementation output assay of evolved PYR-based sensors was carried out by NanoLuc split luciferase (19). The larger fragment, LgBit (or Luc^N), was fused to N-terminus of PYR1 variants, while the small fragment, SmBit (or Luc^C) was fused to N-terminus of ΔN-HAB1. […] Ligand was added to yeast cultures 12 hour prior to measuring cell luminescence. […] The relative luminescence signal (RLU) was immediately measured continuously in a Synergy™ Neo2 Multi-Mode Microplate Reader over 30 minutes. The average value of RLU of each measured sample was taken once the measurements had reached a stable value. […]

B1: PYL2^WIN: PYL2 sensor (K64Q, F165A, V1661), SEQ ID NO: 37 (protein)
chain: MSSSPAVKGLTDEEQKTLEPVIKTYHQFEPDPTTCTSLITQRIHAPASVVWPLIRRFDNPERYQHFVKRCRLISGDGDVGSVREVTVISGLPASTSTERLEFVDDDHRVLSFRVVGGEHRLKNYKSVTSVNEFLNQDSGKVYTVVLESYTVDIPEGNTEEDTKMAIDTVVKLNLQKLGVAATSAPMHDDE
B1: the “ligand responsiveness of PYL2 transposed sensors” value in the test on HAB1 was “nM ligand responsiveness”.

B2: PYR1^DIAZI (protein)
chain: MPSELTPGERSELKNSIAEFHTYQLDPGSCSSLHAQRIHAPPELVWSIVRRFDKPQTYKHFIKSCSVEQNFEMRVGCTRDYIVISGMPANTSTERLDILDDERRVTGYSIIGGEHRLTNYKSVTTVHRFEKENRIWTVVLESYVVDMPEGNSEDDTRVGVDTVVKLNLQKLATVAEAMARNSGDGSGSQVT
Take B2: the “response of evolved organophosphate receptors to native ligand ABA” value in the test on ΔN-HAB1 is “no longer bind the native ligand ABA; also recorded: neither receptor was activated by ABA”. The EC50 came to 36 nM at ΔN-HAB1 (sensor PYR1^DIAZI, ligand diazinon) and 24 nM with Luc^N-PYR1/Luc^C-ΔN-HAB1 (Luc^N-PYR1^DIAZI/Luc^C-HAB1 in yeast, ligand diazinon).

B3: PYR1^PIRI (protein)
chain: MPSELTPEERSELKNSIAEFHTYQLDPGSCSSLHAQRIHAPPELVWSIVRRFDKPQTYRHFIKSCSVEQNFEMRVGCTRDVIVISGLPANTMTERLDILDDERRVTGFSIIGGEHRLTSYKQVTTVHRFGKENRIWTVVLESYVVDMPEGNSEDDTRMTTDTVVKLNLQKLATAAEAMARNSGDGSGSQVT
Consider B3, for which, in the test on ΔN-HAB1, the “response of evolved organophosphate receptors to native ligand ABA” value is listed as “no longer bind the native ligand ABA; also recorded: neither receptor was activated by ABA”. Also, the concentration giving a half-maximal response (EC50) at ΔN-HAB1 (sensor PYR1^PIRI, ligand pirimiphos-methyl) came to 58 nM; in the test with Luc^N-PYR1/Luc^C-ΔN-HAB1 (Luc^N-PYR1^PIRI/Luc^C-HAB1 in yeast, ligand pirimiphos-methyl) it was 19 nM.
